From the nanobody polyreactivity screen of Harvey et al. (2022)

Test: yeast display, Sf9 membrane polyspecificity reagent, FACS + sequencing; frameworks hold sequencing errors
Outline: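 A synthetic nanobody library was expressed on Saccharomyces cerevisiae BJ5465 by galactose induction for 36–48 hours. The library was stained for 1 hour at 4 °C with 10% biotinylated, detergent-solubilized Sf9 membrane reagent and enriched with streptavidin microbeads before FACS. Low and high (top ~1%) gates were set on anti-HA fluorescence for expression and streptavidin fluorescence for reagent binding, and each polyreactivity label reflects the gate of origin.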

Row | Sequence | polyreactivity (PSR sort gate)
1 | QVQLVESGGCLVQAGGSLRLSCAASGSTFLSYAMGWYRQAPGKERELVAAISYSAGSTYYADSVKGRFTISRDNAKNTVYLQMNSLKPEDTAVYYCAAYDYSERRYDYWGQGTQVTVSS | low polyreactivity
2 | QVQLVESGGGLVQAGGSLRLSCAASGSTFGWYTMGWYRQAPGKERELVAAMTSRGTRTSYADSVKGRFTISRDNAKNTVYLQMNSLKPEDTAVYYCAARVFRGLGEYYWGQGTQVTVSS | high polyreactivity
3 | QVQLVESGGGLDQAGGSLRLSCAASGRIFTTYAMGWYRQAPGKERELVAAISRSGGSTYYADSVKGRFTISRDNAKNTVYLQMNSLKPEDTAVYYCAAVPTSNSFRSSFYYWGQGTQVTVSS | high polyreactivity
4 | QVQLVESGGGLVQAGGSLRLSCAASGLIFYYYAMGWYRQAPGKERELVAAITRGGRTYYADSVKGRFTISRDNAKNTVYLQMNSLKPEDTAVYYCNTVSVKSGLDYWGQGTQVTVSS | high polyreactivity
5 | QVQLVESGGGLVQAGGILRLSCAASGRTIDHYAKGSYRKAPGKERELVAAISTTGGSTYYADSVKGRFTISRDNAKNTVYLQMNSLKPADTAVYYCAARGLRTGGYWGQGTQVTVSS | high polyreactivity
6 | QVRLVESGGGLVKAGGSLRLSSAASGSTFWSYAMGCYRQATGKERELVAAISWSGDSTYYADSVKGRFTISRDNAKNTVYLQMNSLKPEDTAVYYCAADYVGGSYEYEYWGQGTQVTVSS | low polyreactivity
7 | QVQLVESGGGLVQAGGSLRLSCAASGSTFSRYAMGWYRHAPGKERELVAAISSSGGGTYYADSVKGRFTISRDTAKNTVFFQMNSLKPEDTAVYYCAKSYRRRQGYYYWGQGTQVTVSS | high polyreactivity
8 | QVQLVESGGGLVQAGGSLRLSCAASGRTFAYYAMGWYRQAPGKERELVATISWTTGSTYYADSVKGRFTISRDNAKNTVYLQMNSLKPEDTAVYYCNKRYNNPYWYPGRYPYDYWGQGTQVTVSS | high polyreactivity
9 | QVQLVESGGGLVQAGGSLRLSCAASGRTFWFNHMGSYRQAPGKERELVAAITWNGGSTYYADSVKGRFTISRDNAKNTVYLQMNSLKPEATAVYYCARTSYARYRNGWTYDHWGQGTQVTVSS | low polyreactivity
10 | QVQLVESGGGLVQAGGSLRLSCAASGRIFTTYAMGWYRQAPGKERELVARITLSAGRTYYADSVKGRFTISRDNAKYSVYLQMNSLKPEDTEVYYCAAEGFYRSSPVRTYIGYDYWGQGTQVTVSS | high polyreactivity
11 | QVQLVESGGGLVQAGGSLRLSCAASGFTFAGNAMGWYRQAPGKERELVAAISRRGGSTYYADSVKGRFTISRDNAKNTVYLQMNSLKPEDTAVYYCAAVYPYDYDYWGQGTQVTVSS | high polyreactivity
12 | QVQLVESGGGLVQAGGSLRLSCAASGSTFYVYGMGWYRQAPGKERELVATISSSGAITYYADSVKGRFTISRDNAKNTVYLQMNSLKPEDTAVYYCARTGSLLSQVWYTYWGQGTQVTVSS | low polyreactivity
13 | QDQLVESGGGLVHAGGSLRLSCAASVSTFTRYDMGRYRQAPGKERELVDAISWSGGRTHYADSVKGRFTISRENAKNTVYLQMNSLKPEDTAVYYCNTLYDYWYDYWGQGSQVTVSS | low polyreactivity
14 | QVQLVESGGGLVQAGGSLRLSCAASGRIFAGYAMGWYRQAPGKEREFVATITSRAGNTYYADSVKGRFTISRDNAKNTVYLQMNSLKPEDTGVYYCAARSRGWAGYYYWYKDYSWGQGTQVTVSS | high polyreactivity
15 | QVQLVESGGGLVQAGGSLRLSCAASGRIFYGNAMGWYRQPPGKERELFAGITRSSGTSTYYADSVKVRFTISRDNAKYTVYLQMNSMNPEDTAVYYCAAPPDSYYYYKVPVVPYDYWGQGTQVTVSS | low polyreactivity
16 | QVQLVESGGGLVQAGGSLRLSCAASGRIFGRYAMGWYRQAPGKERELVAAITSGGRTSYADSVKGRFTISRDNAKNTVYLQMNSLKPEDTSVYYCNVVSRNSIRFDYWGQGTQVTVSS | high polyreactivity
17 | QVQLVESGGGLVQAGGSLRLSCAASGLTFAYYAMGWYRQAPGKERELVAVISSAGSTYYADSVKGRFTISRDNAKNTVYLQMNSLNPEDTAVYYCAARAPSSISQTRGMYYWGQGTQVTVSS | high polyreactivity
18 | QVQLVESGVGLVQAGGSLRLSCAASGFLIRYYAMGWYRQAPGKERELVASIDWSGGNTYYADSVKGRFTSSRDKAKITVYFQMNSLKPEDTAVYSCNRRGMDWGQGTQVNVSS | low polyreactivity
19 | QVQLVESGGGLVQAGGSLRLSCAASGRTLSWYAMGWYRQAPGKERELVAAISYRGVSTYYADSVKGRFTISRDNAKNTVYLQMNSLNPEDTAVYYCAAESWYYSYIVEMEYWGQGTQVTVSS | high polyreactivity
20 | QVQLVESGGGLVQAGGSLRLSCAASGLTFTYYALGWYRQAPGKERELVAAISSSGSDTYYADSVKGRFTISRDNAKNTVYLQMNSLKPEDTAVYYCAAVLTGLSPDFEYEYWGQGTQVTVSS | low polyreactivity

Row | Sequence | polyreactivity (PSR sort gate)
21 | QVQLVESGGGLDQAGGSLRLSCAASGRTFEYNAMGLYRQAPGKERELVATIRYSGTSTYADSVKGRFTISRDNAKNTAYLQMNSLKPEDTAVYYCNKLGYYYDRRYDYWGQGTQVTVSS | high polyreactivity
22 | QVQLVESAGGLVQAGGSLRLSCAPSGRIFLTNAMGWYRQAPGKERELVAAITSGGSTYYADSVKGRFTISRDNAKNTVYLQMNSLKPEDTAVYYCNADTDRYWPYEYDYWGQGTQVTVSS | low polyreactivity
23 | QVQLVESGGGLVQAGGSLRLSCAASGSTFYTYTAMGWYRQAPGKERELVAAITWRGGSTYYADSVKGRFTISRDNAKNTVYLQLNSLKPEDTAVYYCNTVHYYRDYDYWGQGTQVTVSS | high polyreactivity
24 | QVQLVESGGGLVQAGGSLRLSCAASGRTFYRNAMGWYRQAPGKERELVASIRRNGGSTYYADSVKGRFTISRDNAKNTVYLQMNSLKPEDTAVYYCAARSTRRRIYGYWGQGSQVTVSS | high polyreactivity
25 | QVQLVESGGRLVQAGGSLRLSCAASGSIFDAYAMGWYRQAPGKERELVAAITTVGSTNYADSVKGRFTISRDNAKNTVYLQMNSLKPEDTAVYYCNADCNTDIVPTPYDYWGQGTQVTVSS | low polyreactivity
26 | QVQLVESGGGLVQAGGSLRLSCAASGSTFLYNAMGWYRQAPGKERELVAAITIGGGSTYYADSVKGRFTISRDNAKNTVYLQMNSLKPEDTAVYYCNKGSYYWWDPGSTYIDDNWGQGTQVTVSS | low polyreactivity
27 | QVQLVESGGGLVQAGGSLRLSCAASGRIFEPYAMGWYRQAPGKERELVAAISWSGTSTRYADSVKGRFTISRDNAKNTVYLQMNSLKPEDTAVYYCAARGNNPARGGYWGQGTQVTVSS | high polyreactivity
28 | QVQLVESGGGLVQAGGSLRLSCAASGRTFSDYAMGWYRQAPGKERELVAAITSSGGSTYYADSVKGRFTISRDNAKNTVYLQMNSLKPEDTAVYYCAKVWYGDRNIDRYDYWGQGTQVTVSS | high polyreactivity
29 | QVQLVDSGGGLVQAGGSLLLSCAASGSTINHKDMGLYRQAPGKERELVAAISWSGGSTTYADSVKGRFTISRDNAKNTVYLQMNSLKPEDTAVYYCAADWYYWGFIFDYWGQGTQVTVSS | high polyreactivity
30 | QVQLVESGGGLVQAGGSLRLSCAASGRTFNAYAMGWYRQAPGKERELVAAITWSGGSTYYAHSVKGRFTISRDNAKNTVYLQMNSLKPEDTAVYYCAARSFTNIRSVSSPYRYYYWGQGTQVTVSS | high polyreactivity
31 | QVQLVESGGGLVQAGGSLRLSCAASGFIFARYAMGWYRQAPGKERELVASITRRGGSTYYADSVKGRFTISRDNAKNTVYLQMNSLKPEDTAVYYCARPNLLSGDYWGQGTQVTVSS | high polyreactivity
32 | QVQHVESGGGLVQAGASLRLSCAASGFTIRSYVRGWYRQAPGKEREIVAAISYRGGGTNYADSVKGRFTISRDNAKNTVYLHMNSLKPEDTAVYYCNARSGSSKSGYYYWGQGTQVTVSS | high polyreactivity
33 | QVHLVESGGGLVQAGGSLRLSCAASGFTFRYYGMGRYRQAPGKERELVAAISRGGSTNYADSVKGRFTISRDNAKNTVYLQMTSLKPEDTAVYYFAKAGLTYRALRYYWGQGTQVTVSS | high polyreactivity
34 | QVQLVESGGGLVQAGGSLRLSCAASGSIFWLYAMGWYRQAPGKERELVAAITWSGGRTYYADSVKGRFTISRDTAKNTVYLQMNSLKPEDTAVYYCARRQWPWYSNPARGGKYDYWGQGTQVTVSS | low polyreactivity
35 | QVQLVESGGGLVQAGGSLRLSCAASGSIFDSNAMGWYRQAPGKERELVAAMDDAGATTYYADSVQGRFTISRDNAKNTVYLQMNSLKPEDTAVYYCAAETYTGSLAYYRVYYYWGQGTQVTVSS | low polyreactivity
36 | QVQLVESGGGLVQAGGSLRLSCAASGLTIYHYAMGWYRQAPGKERELVAAISWNGGSTYYADSVKGRFTFSRDNAKNTVYLQMNSLKPEDTAVYYCAVVFNPHRYTGVLAGYDYWGQGTQVTVSS | high polyreactivity
37 | QVQLVESGGGLVQAGGSLRLSCAASGRIFYAYAMGWYRQAPGKERELVAAITARGGSTYYADSVKGRFTISRDNAKTTVYLQMNSLKPEDTAVYYCAKDTLLETGYEYWGQGTQVTVSS | high polyreactivity
38 | QVQLVESGGGLVQAGGSLRLSCAASGRIFRVNAMGWYRQAPGKERELVAAISRRGGRTYYADSVKGRFTISRDNAKNTVYLQMNSMKPEDTAVYYCNADSVTSAGSLGRAEYGYWVQGTQVTVSS | high polyreactivity
39 | QVQLVESGGGLVQAGGSLRFSCAASGRTFGINAMGWYRQAPGKERELVAVITFGDGGTYYADSVKGRFTISRDNAKNTVYLQMNSLNPEDTAVYYCSTDYQSTSVWGGHFVINPYDYWGQGTQVTVSS | low polyreactivity
40 | QVQHVESGGGLVQAGVSLRLSCAASGFTFHRNAMGWSTQAPGKERELLAAITMKGGSSTYYADSVKGRFTISRDNAKNTVYLQMNSLKPEDTAVYYCARDSYSYTFSKNSDPAEYDYWGQGTQVTLSS | low polyreactivity
